These results are taken from PMC12557367, ““Precision on Two Wheels”–Structural Refinement of ^64Cu- and ^68Ga-Labeled Bicyclic Peptides Targeting Nectin‑4 for Improved Tumor Imaging: From Preclinical Development to First-in-Human Application” (Journal of Medicinal Chemistry, 2025).

In test [1] the target is T1, recombinant human nectin-4 (human, UniProt Q96NY8 32-349).
T1 construct: nectin-4, human, recombinant; also called complete extracellular domain of nectin-4; source: bought: R&D Systems (Catalog number 2659-N4)
T1 sequence (looked up): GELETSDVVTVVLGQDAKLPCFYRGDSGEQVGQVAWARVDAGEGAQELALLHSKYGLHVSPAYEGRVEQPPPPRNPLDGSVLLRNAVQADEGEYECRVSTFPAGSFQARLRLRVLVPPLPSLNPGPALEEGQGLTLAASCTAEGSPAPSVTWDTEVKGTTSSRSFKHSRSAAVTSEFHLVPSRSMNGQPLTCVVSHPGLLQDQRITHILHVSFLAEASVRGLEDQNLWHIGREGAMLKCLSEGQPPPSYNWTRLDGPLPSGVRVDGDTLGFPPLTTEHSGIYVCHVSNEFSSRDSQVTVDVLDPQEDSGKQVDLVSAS
As to the kind of experiment: fluorescence polarisation; fluorescence anisotropy, competition: 1 nM probe 1a, 20 nM nectin-4, 10 concentrations of nonlabeled peptide, 37 °C, HEPES buffer pH 7.4, 1% DMSO; IC50 transformed into Kd (Nikolovska-Coleska equation, Kd of 1a 0.94 nM). The conditions noted are these: both partners purified. A general note: Polarisation of emitted light reports the rotation of a fluorescent probe.

For test [2], the target named is T1, recombinant human nectin-4. Description: SPR; Biacore T200, human nectin-4 immobilised on CM5 chip by amine coupling, peptides as analytes, single-cycle kinetics, 25 °C, HBS-P+ pH 7.4, no DMSO, 1:1 binding model. The conditions noted are these: both partners purified.
Test [3] addresses T2, nectin-4 on intact HT-1376 cells (human (endogenous in HT-1376), UniProt Q96NY8 32-510).
T2 construct: also called cellular nectin-4
T2 sequence (looked up): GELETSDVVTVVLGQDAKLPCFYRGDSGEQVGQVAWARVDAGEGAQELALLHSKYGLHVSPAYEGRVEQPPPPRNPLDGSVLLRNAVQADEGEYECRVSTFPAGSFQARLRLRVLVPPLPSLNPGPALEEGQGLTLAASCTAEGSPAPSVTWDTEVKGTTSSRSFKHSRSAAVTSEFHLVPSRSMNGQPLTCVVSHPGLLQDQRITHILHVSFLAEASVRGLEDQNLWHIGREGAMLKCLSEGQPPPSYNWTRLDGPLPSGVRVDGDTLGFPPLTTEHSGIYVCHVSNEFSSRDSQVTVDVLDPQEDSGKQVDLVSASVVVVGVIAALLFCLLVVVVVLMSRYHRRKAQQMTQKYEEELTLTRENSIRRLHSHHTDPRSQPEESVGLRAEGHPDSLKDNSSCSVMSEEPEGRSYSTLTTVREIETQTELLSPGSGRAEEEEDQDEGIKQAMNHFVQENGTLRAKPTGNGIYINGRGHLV
As to the kind of experiment: radioligand binding; saturation binding on intact HT-1376 cells, 10 radioligand concentrations (0.156-80 or 0.321-160 nM), 37 °C, 1 h, PBS wash; nonspecific with 1 µM 1d; apparent (covers binding and putative internalisation). The note with it: one partner purified.

In test [4] the target is T2, nectin-4 on intact HT-1376 cells. Description: radioligand binding; intact HT-1376 cells, 10 nM radioligand, 37 °C, 1 h, PBS wash; nonspecific binding with 1 µM 1d (3a for [68Ga]Ga-8d); specific binding in fmol/mg protein. The conditions noted are these: one partner purified.

Numbered stars: 1 amine (or outer) side, 2 acyl side, 3 side chain; on linkers, the order of the positions; unused ones are H or OH. Bridge positions count the residues as written; N and C are the ends. Square brackets hold non-standard residues; d marks the D form. * marks the point of attachment. (R)‑NODAGA = O=C(O)CN1CCN(CC(=O)O)CCN([C@H](CCC(=O)*)C(=O)O)CC1; DOTA = O=C(O)CN1CCN(CC(=O)O)CCN(CC(=O)*)CCN(CC(=O)O)CC1; TATA = O=C(CC[*:1])N1CN(C(=O)CC[*:2])CN(C(=O)CC[*:3])C1; Ser(et) = O-ethylserine, CCOC[C@H](N[*:1])C(=O)[*:2]; Mox = methoxinine, COCC[C@H](N[*:1])C(=O)[*:2]; 1Nal = N[C@@H](Cc1cccc2ccccc12)C(=O)O; 2Nal = N[C@@H](Cc1ccc2ccccc2c1)C(=O)O; Hyp = O=C(O)[C@@H]1C[C@@H](O)CN1; hArg = N=C(N)NCCCC[C@H](N)C(=O)O; Met(O) = CS(=O)CC[C@H](N)C(=O)O; SeMet = C[Se]CC[C@H](N)C(=O)O; Nle = CCCC[C@H](N)C(=O)O

B1: 1e (peptide)
chain: {(R)‑NODAGA}-CP[1Nal][dD]CM[hArg]DWSTP[Hyp]WC-NH2
modifications: linker 1-5-15 via TATA
One may read the koff as the rate constant with which the complex falls apart. By kon is commonly meant a measure of how fast the partners come together. On to B1, for which the Kd in test [1] was 0.77 nM. Besides, in test [2], the Kd is 3.6 nM, the koff came out at 0.00434 s⁻¹ and the association rate constant (kon) came to 1.21e+06 M⁻¹ s⁻¹.

B2: 8c (peptide)
chain: {DOTA}-CP[2Nal][dD]CMRDWSTP[Hyp]WC-NH2
modifications: linker 1-5-15 via TATA
As to B2, the Kd in test [1] turned out to be 149 nM. Also, in test [2], the Kd was found to be 127 nM, the koff was 0.00239 s⁻¹ and the kon is 20000 M⁻¹ s⁻¹.

B3: 2 (peptide)
chain: {(R)‑NODAGA}-CP[1Nal][dD]C[Met(O)][hArg]DWSTP[Hyp]WC-NH2
modifications: linker 1-5-15 via TATA; also: Met(O): mixture of diastereomers
Regarding B3, the Kd in test [1] was 25 nM.

B4: 1d (BCY8126) (peptide)
chain: Ac-CP[1Nal][dD]CM[hArg]DWSTP[Hyp]WC-NH2
modifications: linker 1-5-15 via TATA
As for B4, the Kd in test [1] turned out to be 0.73 nM.

B5: [68Ga]Ga-8c (peptide)
chain: {DOTA}-CP[2Nal][dD]CMRDWSTP[Hyp]WC-NH2
modifications: linker 1-5-15 via TATA; also: DOTA complexed with 68Ga
As to B5, in test [3], the Kd came out at 103 nM. Besides, the “specific cell binding at 10 nM radioligand” value (“specific cell binding” for short) in test [4] worked out at 38.4 fmol/mg.

B6: 3b (peptide)
chain: Ac-CP[1Nal][dD]C[Nle][hArg]DWSTP[Hyp]WC-NH2
modifications: linker 1-5-15 via TATA
As for B6, the Kd in test [1] amounted to 0.58 nM.

B7: natCu-3a (peptide)
chain: {(R)‑NODAGA}-CP[1Nal][dD]C[Nle][hArg]DWSTP[Hyp]WC-NH2
modifications: linker 1-5-15 via TATA; also: NODAGA complexed with natCu
Turning to B7, the Kd in test [1] was 1.22 nM.

B8: 1c (peptide)
chain: H-CP[1Nal][dD]CM[hArg]DWSTP[Hyp]WC-NH2
modifications: linker 1-5-15 via TATA
On to B8, for which, in test [1], the Kd is 1.51 nM.

B9: [68Ga]Ga-4 (peptide)
chain: {(R)‑NODAGA}-CP[1Nal][dD]C[Mox][hArg]DWSTP[Hyp]WC-NH2
modifications: linker 1-5-15 via TATA; also: NODAGA complexed with 68Ga
As for B9, the Kd in test [3] is 13.1 nM.

B10: 10 (peptide)
chain: {(R)‑NODAGA}-CP[1Nal][dD]CMRDWSTP[Hyp]WC-NH2
modifications: linker 1-5-15 via TATA
Take B10: the Kd in test [1] came out at 0.61 nM. Moreover, in test [2], the Kd turned out to be 2.51 nM, the koff was found to be 0.00278 s⁻¹ and the on-rate (kon) was found to be 1.11e+06 M⁻¹ s⁻¹.

B11: 8d (N188) (peptide)
chain: {DOTA}-CP[2Nal][dD]CMRDWSTP[Hyp]WC-OH
modifications: linker 1-5-15 via TATA
For B11, the Kd in test [1] stood at 191 nM. Besides, in test [2], the Kd is 236 nM, the koff worked out at 0.00881 s⁻¹ and the kon was 40000 M⁻¹ s⁻¹.

B12: 6 (peptide)
chain: {(R)‑NODAGA}-CP[1Nal][dD]C[Ser(et)][hArg]DWSTP[Hyp]WC-NH2
modifications: linker 1-5-15 via TATA
SMILES: CCOC[C@@H]1NC(=O)[C@@H]2CSCCC(=O)N3CN(CN(C3)C(=O)CCSC[C@H](NC(=O)CC[C@H](C(=O)O)N3CCN(CC(=O)O)CCN(CC(=O)O)CC3)C(=O)N3CCC[C@H]3C(=O)N[C@@H](Cc3cccc4ccccc34)C(=O)N[C@H](CC(=O)O)C(=O)N2)C(=O)CCSC[C@@H](C(N)=O)NC(=O)[C@H](Cc2c[nH]c3ccccc23)NC(=O)[C@@H]2C[C@@H](O)CN2C(=O)[C@@H]2CCCN2C(=O)[C@H]([C@@H](C)O)NC(=O)[C@H](CO)NC(=O)[C@H](Cc2c[nH]c3ccccc23)NC(=O)[C@H](CC(=O)O)NC(=O)[C@H](CCCCNC(=N)N)NC1=O
For B12, the Kd in test [1] came out at 16.4 nM. Moreover, in test [2], the Kd was found to be 6.29 nM, the off-rate (koff) amounted to 0.0247 s⁻¹ and the kon was found to be 3.86e+06 M⁻¹ s⁻¹.

B13: 1f (peptide)
chain: {DOTA}-CP[1Nal][dD]CM[hArg]DWSTP[Hyp]WC-NH2
modifications: linker 1-5-15 via TATA
Regarding B13, the Kd in test [1] was 7.22 nM. Moreover, in test [2], the Kd was determined as 1.31 nM, the koff was 0.0115 s⁻¹ and the kon is 8.76e+06 M⁻¹ s⁻¹.

B14: 3a (peptide)
chain: {(R)‑NODAGA}-CP[1Nal][dD]C[Nle][hArg]DWSTP[Hyp]WC-NH2
modifications: linker 1-5-15 via TATA
For B14, the values for the Kd in test [1] and in test [2] were 1.04 nM and 1.31 nM, respectively.

B15: [64Cu]Cu-1e (peptide)
chain: {(R)‑NODAGA}-CP[1Nal][dD]CM[hArg]DWSTP[Hyp]WC-NH2
modifications: linker 1-5-15 via TATA; also: NODAGA complexed with 64Cu
Regarding B15, the Kd in test [3] is 7.15 nM. In addition, the “specific cell binding” value in test [4] came to 159 fmol/mg.

B16: 8a (peptide)
chain: {(R)‑NODAGA}-CP[2Nal][dD]CMRDWSTP[Hyp]WC-NH2
modifications: linker 1-5-15 via TATA
For B16, the Kd in test [1] amounted to 21 nM. Moreover, in test [2], the Kd is 63 nM, the koff came to 0.0433 s⁻¹ and the kon was found to be 680000 M⁻¹ s⁻¹.

B17: [68Ga]Ga-1e (peptide)
chain: {(R)‑NODAGA}-CP[1Nal][dD]CM[hArg]DWSTP[Hyp]WC-NH2
modifications: linker 1-5-15 via TATA; also: NODAGA complexed with 68Ga
Take B17: the Kd in test [3] came to 8.7 nM. In addition, the “specific cell binding” value in test [4] came out at 474 fmol/mg.

B18: [64Cu]Cu-8a (peptide)
chain: {(R)‑NODAGA}-CP[2Nal][dD]CMRDWSTP[Hyp]WC-NH2
modifications: linker 1-5-15 via TATA; also: NODAGA complexed with 64Cu
For the molecule B18, the Kd in test [3] stood at 51.7 nM. The “specific cell binding” value in test [4] was determined as 15.6 fmol/mg.

B19: 5 (peptide)
chain: {(R)‑NODAGA}-CP[1Nal][dD]C[SeMet][hArg]DWSTP[Hyp]WC-NH2
modifications: linker 1-5-15 via TATA
For the molecule B19, in test [1], the Kd was 1.37 nM.

B20: natGa-1e (peptide)
chain: {(R)‑NODAGA}-CP[1Nal][dD]CM[hArg]DWSTP[Hyp]WC-NH2
modifications: linker 1-5-15 via TATA; also: NODAGA complexed with natGa
For B20, the Kd in test [1] was 4.47 nM. Moreover, in test [2], the Kd amounted to 2.39 nM, the koff was 0.0026 s⁻¹ and the kon came out at 1.1e+06 M⁻¹ s⁻¹.

B21: natCu-1e (peptide)
chain: {(R)‑NODAGA}-CP[1Nal][dD]CM[hArg]DWSTP[Hyp]WC-NH2
modifications: linker 1-5-15 via TATA; also: NODAGA complexed with natCu
In the case of B21, the Kd in test [1] stood at 0.23 nM.

B22: [68Ga]Ga-8d ([68Ga]Ga-N188) (peptide)
chain: {DOTA}-CP[2Nal][dD]CMRDWSTP[Hyp]WC-OH
modifications: linker 1-5-15 via TATA; also: DOTA complexed with 68Ga
In the case of B22, in test [3], the Kd came to 222 nM.

B23: 9 (peptide)
chain: {(R)‑NODAGA}-CP[2Nal][dD]CM[hArg]DWSTP[Hyp]WC-NH2
modifications: linker 1-5-15 via TATA
B23: in test [1], the Kd worked out at 11.5 nM. In test [2], the Kd came out at 4.58 nM, the koff was 0.0765 s⁻¹ and the kon was 1.69e+07 M⁻¹ s⁻¹.
